Article PMC6482854

Tests used:
[1] = target: P22 coat protein (bacteriophage P22) (UniProt P26747); test: SEC-MALS
[2] = target: P22-StAv particles (in vitro assembled) (bacteriophage P22 | not stated) (UniProt P26747); test: SEC-MALS

Sequence of UniProt P26747 (P26747 whole entry): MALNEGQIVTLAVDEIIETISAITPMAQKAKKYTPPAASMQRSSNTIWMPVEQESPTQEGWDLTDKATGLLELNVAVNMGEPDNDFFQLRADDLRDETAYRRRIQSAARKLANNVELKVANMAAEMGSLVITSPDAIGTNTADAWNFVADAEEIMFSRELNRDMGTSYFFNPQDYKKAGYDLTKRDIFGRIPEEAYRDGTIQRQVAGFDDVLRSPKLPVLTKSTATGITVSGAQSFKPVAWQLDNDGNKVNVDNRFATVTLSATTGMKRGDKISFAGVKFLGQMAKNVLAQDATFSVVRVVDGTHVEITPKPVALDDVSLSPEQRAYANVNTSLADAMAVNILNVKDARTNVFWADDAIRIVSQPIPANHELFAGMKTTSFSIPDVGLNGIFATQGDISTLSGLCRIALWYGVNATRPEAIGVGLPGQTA

Row | Substance | copies of StAv-SP per capsid (copies per capsid) [1] | stoichiometry N (copies per capsid) [2]
1 | 6xhis-StAv(15–159)-GAAG-ENLYFQS-GAAG-SP(142–303) (from UniProt P26748 142-303) | 328 | –
2 | biotinylated Cys-6xhis-SP(142–303)-GGGGG-ENLYFQS-GGGGG-GFP (from UniProt P26748 142-303) | – | 36
